Reference: the supplement of paper PMC10567573

B1: KCNAB2 (parent)
chain: IPPYSRASLKGYQWLKDKILSEEG
B2: PSD2 (parent)
chain: PLMGETQERERVLTHFSRRYCQCN

Variants of: B1
Test: protein stability index of a GFP-peptide fusion (GPS, HEK-293T) (PSI 1-6); higher = more stable
Settings: c terminus: a fixed tail appended
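Note: lentivirally expressed fusions sorted by FACS into six bins by GFP to DsRed ratio, PSI derived from sequencing read proportions per bin multiplied by bin number.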

Variant	protein stability index
IPPYSRASLKGYQWLKDKILKEEG [S21K]	3.24
IPPYSRASLKGYQWLKDKILLEEG [S21L]	2.19
IPPYSRASLKGYQWLKDKILMEEG [S21M]	2.43
IPPYSRASLKGYQWLKDKILNEEG [S21N]	2.02
IPPYSRASLKGYQWLKDKILPEEG [S21P]	2.45
IPPYSRASLKGYQWLKDKILQEEG [S21Q]	3.31
IPPYSRASLKGYQWLKDKILREEG [S21R]	1.68
IPPYSRASLKGYQWLKDKILTEEG [S21T]	2.31
IPPYSRASLKGYQWLKDKILVEEG [S21V]	1.67
IPPYSRASLKGYQWLKDKILWEEG [S21W]	3.22
IPPYSRASLKGYQWLKDKILYEEG [S21Y]	2.08
IPPYSRASLKGYQWLKDKILSAEG [E22A]	2.74
IPPYSRASLKGYQWLKDKILSCEG [E22C]	2.09
IPPYSRASLKGYQWLKDKILSDEG [E22D]	2.68
IPPYSRASLKGYQWLKDKILSFEG [E22F]	2.12
IPPYSRASLKGYQWLKDKILSGEG [E22G]	1.68
IPPYSRASLKGYQWLKDKILSHEG [E22H]	1.45
IPPYSRASLKGYQWLKDKILSKEG [E22K]	1.75
IPPYSRASLKGYQWLKDKILSNEG [E22N]	2.26
IPPYSRASLKGYQWLKDKILSPEG [E22P]	2.48

Variant	protein stability index
IPPYSRASLKGYQWLKDKILSQEG [E22Q]	2.47
IPPYSRASLKGYQWLKDKILSREG [E22R]	1.62
IPPYSRASLKGYQWLKDKILSSEG [E22S]	2.08
IPPYSRASLKGYQWLKDKILSTEG [E22T]	1.97
IPPYSRASLKGYQWLKDKILSVEG [E22V]	1.22
IPPYSRASLKGYQWLKDKILSWEG [E22W]	2.74
IPPYSRASLKGYQWLKDKILSEAG [E23A]	3.77
IPPYSRASLKGYQWLKDKILSEDG [E23D]	1.51
IPPYSRASLKGYQWLKDKILSEFG [E23F]	3.45
IPPYSRASLKGYQWLKDKILSEHG [E23H]	1.76
IPPYSRASLKGYQWLKDKILSEIG [E23I]	2.62
IPPYSRASLKGYQWLKDKILSEKG [E23K]	1.84
IPPYSRASLKGYQWLKDKILSEMG [E23M]	2.31
IPPYSRASLKGYQWLKDKILSENG [E23N]	2
IPPYSRASLKGYQWLKDKILSEPG [E23P]	1.6
IPPYSRASLKGYQWLKDKILSEQG [E23Q]	2.39
IPPYSRASLKGYQWLKDKILSERG [E23R]	2.43
IPPYSRASLKGYQWLKDKILSESG [E23S]	4.83
IPPYSRASLKGYQWLKDKILSETG [E23T]	3.2
IPPYSRASLKGYQWLKDKILSEVG [E23V]	2.5

Variant	protein stability index
IPPYSRASLKGYQWLKDKILSEYG [E23Y]	2.18
IPPYSRASLKGYQWLKDKILSEEA [G24A]	2.31
IPPYSRASLKGYQWLKDKILSEEC [G24C]	2.06
IPPYSRASLKGYQWLKDKILSEED [G24D]	3.48
IPPYSRASLKGYQWLKDKILSEEE [G24E]	3.1
IPPYSRASLKGYQWLKDKILSEEF [G24F]	1.99
IPPYSRASLKGYQWLKDKILSEEH [G24H]	2.09
IPPYSRASLKGYQWLKDKILSEEI [G24I]	1.81
IPPYSRASLKGYQWLKDKILSEEK [G24K]	2.61
IPPYSRASLKGYQWLKDKILSEEL [G24L]	1.43
IPPYSRASLKGYQWLKDKILSEEM [G24M]	2.56
IPPYSRASLKGYQWLKDKILSEEN [G24N]	2.05
IPPYSRASLKGYQWLKDKILSEEP [G24P]	1.95
IPPYSRASLKGYQWLKDKILSEEQ [G24Q]	3.79
IPPYSRASLKGYQWLKDKILSEER [G24R]	1.47
IPPYSRASLKGYQWLKDKILSEES [G24S]	2.49
IPPYSRASLKGYQWLKDKILSEET [G24T]	1.99
IPPYSRASLKGYQWLKDKILSEEV [G24V]	1.77
IPPYSRASLKGYQWLKDKILSEEW [G24W]	1.35
IPPYSRASLKGYQWLKDKILSEEY [G24Y]	1.48

Variants of: B2
Test: as above
Settings: c terminus: a fixed tail appended

Variant	protein stability index
ALMGETQERERVLTHFSRRYCQCN [P1A]	1.96
CLMGETQERERVLTHFSRRYCQCN [P1C]	2.34
DLMGETQERERVLTHFSRRYCQCN [P1D]	1.82
ELMGETQERERVLTHFSRRYCQCN [P1E]	2.79
FLMGETQERERVLTHFSRRYCQCN [P1F]	2.48
HLMGETQERERVLTHFSRRYCQCN [P1H]	2.6
ILMGETQERERVLTHFSRRYCQCN [P1I]	2.04
KLMGETQERERVLTHFSRRYCQCN [P1K]	2.25
LLMGETQERERVLTHFSRRYCQCN [P1L]	1.67
NLMGETQERERVLTHFSRRYCQCN [P1N]	2.97
QLMGETQERERVLTHFSRRYCQCN [P1Q]	2.81
RLMGETQERERVLTHFSRRYCQCN [P1R]	4.31
SLMGETQERERVLTHFSRRYCQCN [P1S]	2.98
TLMGETQERERVLTHFSRRYCQCN [P1T]	2.58
VLMGETQERERVLTHFSRRYCQCN [P1V]	2.4
WLMGETQERERVLTHFSRRYCQCN [P1W]	2.3
YLMGETQERERVLTHFSRRYCQCN [P1Y]	3.12
PAMGETQERERVLTHFSRRYCQCN [L2A]	3.59
PCMGETQERERVLTHFSRRYCQCN [L2C]	3.52
PDMGETQERERVLTHFSRRYCQCN [L2D]	3.37
PEMGETQERERVLTHFSRRYCQCN [L2E]	3.91
PFMGETQERERVLTHFSRRYCQCN [L2F]	2.41
PGMGETQERERVLTHFSRRYCQCN [L2G]	4.03
PIMGETQERERVLTHFSRRYCQCN [L2I]	3.17
PKMGETQERERVLTHFSRRYCQCN [L2K]	2.57
PMMGETQERERVLTHFSRRYCQCN [L2M]	2.56

Variant	protein stability index
PNMGETQERERVLTHFSRRYCQCN [L2N]	3.42
PPMGETQERERVLTHFSRRYCQCN [L2P]	2.99
PQMGETQERERVLTHFSRRYCQCN [L2Q]	3.35
PRMGETQERERVLTHFSRRYCQCN [L2R]	3.08
PSMGETQERERVLTHFSRRYCQCN [L2S]	3.19
PTMGETQERERVLTHFSRRYCQCN [L2T]	3.01
PVMGETQERERVLTHFSRRYCQCN [L2V]	3.35
PWMGETQERERVLTHFSRRYCQCN [L2W]	2.58
PYMGETQERERVLTHFSRRYCQCN [L2Y]	1.9
PLAGETQERERVLTHFSRRYCQCN [M3A]	3.72
PLCGETQERERVLTHFSRRYCQCN [M3C]	2.61
PLDGETQERERVLTHFSRRYCQCN [M3D]	3.69
PLEGETQERERVLTHFSRRYCQCN [M3E]	3.3
PLFGETQERERVLTHFSRRYCQCN [M3F]	2.77
PLGGETQERERVLTHFSRRYCQCN [M3G]	4
PLHGETQERERVLTHFSRRYCQCN [M3H]	3.22
PLIGETQERERVLTHFSRRYCQCN [M3I]	2.37
PLKGETQERERVLTHFSRRYCQCN [M3K]	3.13
PLLGETQERERVLTHFSRRYCQCN [M3L]	3.15
PLPGETQERERVLTHFSRRYCQCN [M3P]	2.72
PLRGETQERERVLTHFSRRYCQCN [M3R]	2.44
PLSGETQERERVLTHFSRRYCQCN [M3S]	2.97
PLTGETQERERVLTHFSRRYCQCN [M3T]	4.68
PLWGETQERERVLTHFSRRYCQCN [M3W]	2.79
PLYGETQERERVLTHFSRRYCQCN [M3Y]	2
PLMAETQERERVLTHFSRRYCQCN [G4A]	3.3

Variant	protein stability index
PLMCETQERERVLTHFSRRYCQCN [G4C]	2.49
PLMDETQERERVLTHFSRRYCQCN [G4D]	3.24
PLMEETQERERVLTHFSRRYCQCN [G4E]	3.95
PLMFETQERERVLTHFSRRYCQCN [G4F]	2.31
PLMHETQERERVLTHFSRRYCQCN [G4H]	2.93
PLMIETQERERVLTHFSRRYCQCN [G4I]	2.76
PLMKETQERERVLTHFSRRYCQCN [G4K]	2.6
PLMLETQERERVLTHFSRRYCQCN [G4L]	2.02
PLMNETQERERVLTHFSRRYCQCN [G4N]	2.92
PLMPETQERERVLTHFSRRYCQCN [G4P]	3.62
PLMQETQERERVLTHFSRRYCQCN [G4Q]	2.43
PLMSETQERERVLTHFSRRYCQCN [G4S]	2.92
PLMTETQERERVLTHFSRRYCQCN [G4T]	3.86
PLMWETQERERVLTHFSRRYCQCN [G4W]	2.07
PLMYETQERERVLTHFSRRYCQCN [G4Y]	2.06
PLMGATQERERVLTHFSRRYCQCN [E5A]	2.78
PLMGCTQERERVLTHFSRRYCQCN [E5C]	1.32
PLMGDTQERERVLTHFSRRYCQCN [E5D]	2.38
PLMGFTQERERVLTHFSRRYCQCN [E5F]	2.74
PLMGGTQERERVLTHFSRRYCQCN [E5G]	2.46
PLMGHTQERERVLTHFSRRYCQCN [E5H]	2.77
PLMGITQERERVLTHFSRRYCQCN [E5I]	2.64
PLMGKTQERERVLTHFSRRYCQCN [E5K]	2.2
PLMGLTQERERVLTHFSRRYCQCN [E5L]	2.08
PLMGMTQERERVLTHFSRRYCQCN [E5M]	1.87
PLMGNTQERERVLTHFSRRYCQCN [E5N]	2.69

Variant	protein stability index
PLMGPTQERERVLTHFSRRYCQCN [E5P]	2.94
PLMGQTQERERVLTHFSRRYCQCN [E5Q]	2.07
PLMGRTQERERVLTHFSRRYCQCN [E5R]	2.39
PLMGSTQERERVLTHFSRRYCQCN [E5S]	2.66
PLMGTTQERERVLTHFSRRYCQCN [E5T]	2.09
PLMGVTQERERVLTHFSRRYCQCN [E5V]	1.92
PLMGWTQERERVLTHFSRRYCQCN [E5W]	1.86
PLMGYTQERERVLTHFSRRYCQCN [E5Y]	1.83
PLMGEAQERERVLTHFSRRYCQCN [T6A]	3.27
PLMGECQERERVLTHFSRRYCQCN [T6C]	4.24
PLMGEDQERERVLTHFSRRYCQCN [T6D]	2.98
PLMGEEQERERVLTHFSRRYCQCN [T6E]	3.05
PLMGEFQERERVLTHFSRRYCQCN [T6F]	2.22
PLMGEGQERERVLTHFSRRYCQCN [T6G]	2.84
PLMGEHQERERVLTHFSRRYCQCN [T6H]	3.15
PLMGEIQERERVLTHFSRRYCQCN [T6I]	2.38
PLMGEKQERERVLTHFSRRYCQCN [T6K]	2.14
PLMGEMQERERVLTHFSRRYCQCN [T6M]	2.52
PLMGENQERERVLTHFSRRYCQCN [T6N]	2.21
PLMGEPQERERVLTHFSRRYCQCN [T6P]	3.02
PLMGEQQERERVLTHFSRRYCQCN [T6Q]	2.97
PLMGERQERERVLTHFSRRYCQCN [T6R]	2.95
PLMGESQERERVLTHFSRRYCQCN [T6S]	2.18
PLMGEVQERERVLTHFSRRYCQCN [T6V]	2.44
PLMGEWQERERVLTHFSRRYCQCN [T6W]	2.83
PLMGEYQERERVLTHFSRRYCQCN [T6Y]	2.33

Variant	protein stability index
PLMGETAERERVLTHFSRRYCQCN [Q7A]	3.21
PLMGETCERERVLTHFSRRYCQCN [Q7C]	3.6
PLMGETDERERVLTHFSRRYCQCN [Q7D]	3.72
PLMGETFERERVLTHFSRRYCQCN [Q7F]	2.73
PLMGETGERERVLTHFSRRYCQCN [Q7G]	2.42
PLMGETHERERVLTHFSRRYCQCN [Q7H]	3.23
PLMGETIERERVLTHFSRRYCQCN [Q7I]	1.97
PLMGETKERERVLTHFSRRYCQCN [Q7K]	2.4
PLMGETLERERVLTHFSRRYCQCN [Q7L]	2.61
PLMGETMERERVLTHFSRRYCQCN [Q7M]	2.22
PLMGETNERERVLTHFSRRYCQCN [Q7N]	2.9
PLMGETPERERVLTHFSRRYCQCN [Q7P]	2.77
PLMGETRERERVLTHFSRRYCQCN [Q7R]	2.26
PLMGETSERERVLTHFSRRYCQCN [Q7S]	3.11
PLMGETTERERVLTHFSRRYCQCN [Q7T]	2.69
PLMGETVERERVLTHFSRRYCQCN [Q7V]	3.27
PLMGETWERERVLTHFSRRYCQCN [Q7W]	1.44
PLMGETYERERVLTHFSRRYCQCN [Q7Y]	2.82
PLMGETQARERVLTHFSRRYCQCN [E8A]	2.03
PLMGETQCRERVLTHFSRRYCQCN [E8C]	2.17
PLMGETQDRERVLTHFSRRYCQCN [E8D]	3.46
PLMGETQFRERVLTHFSRRYCQCN [E8F]	1.67
PLMGETQGRERVLTHFSRRYCQCN [E8G]	2.35
PLMGETQHRERVLTHFSRRYCQCN [E8H]	1.97
